Columns and labels:
[1] = target: PTDH-PCNA3_(R112C/T180C)-P450cam (Pseudomonas stutzeri | Sulfolobus solfataricus | Pseudomonas putida); assay: SEC; non-denatured fusion proteins, masses estimated against globular protein standards
[2] = target: PTDH-PCNA3_(R112C/T180C)-P450cam (Pseudomonas stutzeri | Sulfolobus solfataricus | Pseudomonas putida); assay: dynamic light scattering; diameters of the PTDH-fused proteins compared with their counterparts without PTDH fusion
[3] = target: PTDH-PCNA1_(G108C)-PdR (Pseudomonas stutzeri | Sulfolobus solfataricus | Pseudomonas putida); assay: SEC; non-denatured fusion proteins, masses estimated against globular protein standards
[4] = target: PTDH-PCNA1_(G108C)-PdR (Pseudomonas stutzeri | Sulfolobus solfataricus | Pseudomonas putida); assay: dynamic light scattering; diameters of the PTDH-fused proteins compared with their counterparts without PTDH fusion
[5] = target: the molecule itself; assay: SEC; non-denatured fusion proteins, masses estimated against globular protein standards

Molecule: PTDH-PCNA3_(R112C/T180C)-P450cam
- stoichiometry N [1]: 2
- stoichiometry N [2]: 2

Molecule: PTDH-PCNA1_(G108C)-PdR
- stoichiometry N [3]: 2
- stoichiometry N [4]: 2

B1: PTDH-PCNA2_(L171C)-PdX (other)
chain: MLPKLVITHRVHDEILQLLAPHCELMTNQTDSTLTREEILRRCRDAQAMMAFMPDRVDADFLQACPELRVVGCALKGFDNFDVDACTARGVWLTFVPDLLTVPTAELAIGLAVGLGRHLRAADAFVRSGEFQGWQPQFYGTGLDNATVGILGMGAIGLAMADRLQGWGATLQYHARKALDTQTEQRLGLRQVACSELFASSDFILLALPLNADTQHLVNAELLALVRPGALLVNPCRGSVVDEAAVLAALERGQLGGYAADVFEMEDWARADRPRLIDPALLAHPNTLFTPHIGSAVRAVRLEIERCAAQNIIQVLAGARPINAANRLPKAEPAACMKAKVIDAVSFSYILRTVGDFLSEANFIVTKEGIRVSGIDPSRVVFLDIFLPSSYFEGFEVSQEKEIIGFKLEDVNDILKRVLKDDTLILSSNESKLTLTFDGEFTRSFELPLIQVESTQPPSVNLEFPFKAQLLTITFADIIDELSDLGEVLNIHSKENKLYFEVIGDCSTAKVELSTDNGTLLEASGADVSSSYGMEYVANTTKMRRASDSMELYFGSQIPLKLRFKLPQEGYGDFYIAPRADSKVVYVSHDGTRRELDVADGVSLMQAAVSNGIYDIVGDCGGSASCATCHVYVNEAFTDKVPAANEREIGMLESVTAELKPNSRLSCQIIMTPELDGIVVDVPDRQW
- stoichiometry N [5]: 2
